Experiments:
[1] = target: TCR Vβ17 on T cells of PBMCs; assay: flow cytometry on PBMCs, percent of cells stained
[2] = target: Vβ17 (on cells expressing Vβ17); assay: cell-based or functional assay
Sequence of Vβ17 (on cells expressing Vβ17) (A0A075B6N1 22-114): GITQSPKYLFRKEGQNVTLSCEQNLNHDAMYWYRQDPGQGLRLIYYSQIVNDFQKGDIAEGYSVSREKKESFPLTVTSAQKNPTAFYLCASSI

Sequence of TCR Vβ17 on T cells of PBMCs (A0A075B6N1 22-114): as above

| PBMC binding (%) [1] [%] | Cell Internalization (EC50) [2] [nM] | Substance |
| --- | --- | --- |
| 3.4 | < 0.07 | Anti TCR Vβ17-PE Ab, Beckman Coulter, Cat: IM2048 (antibody) |
| 0.13 |  | Goat anti mouse IgG PE, Southern Biotech, Cat: 1030-09 (antibody) |
